Measured values from a protein production outcome set (Wang et al. 2014).

Experiment: label from the status in PepcDB records
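Also: failed if final PepcDB status was selected cloned or expressed and not failed if soluble or beyond.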

MSKKPPNRPGITFEIGARLEALDYLQKWYPSRIEKIDYEEGKMLVHFERWSHRYDEWIYWDSNRLRPLERPALRKEGLKDE
protein production: not failed

MSLDGMPAKQQHNNTGESVELHFHYPIKGKQEPKNSHLVVLIEPKIEINKVIPESYQKEFEKSLFLQLSSFLERKGYSVSQFKDASEIPQDIKEKALLVLRMDGNVAILEDIVEESDALSEEKVIDMSSGYLNLNFVEPKSEDIIHSFGIDVSKIKAVIERVELRRTNSGGFVPKTFVHRIKETDHDQAIRKIMNQAYHKVMVHITKELSKKHMEHYEKVSSEMKKRKEGHHHHHH
protein production: not failed

MNWQLKSKEAEVMNKLSLFLGCIVPNRYPGIEKATKLCLQRLEIDACDLPGASCCPAPGVFKSFDKATWLALASRNIVLSERMERDVLTVCNGCYGSLADANMELKKDPEMKACTNSCLKEIGMEFRGTSEIRHIIEFLYKEFGPEKLKEYITTPLDLKVALHYGCHLIKPSKDRNLGDTESPVFFDELVEATGAKSVDYTDKMMCCGAGGGVRSGYADESLEMLEHKLDCICKAGVDCIVNACPFCHLQFDRGQIAVNEKFGTDYSIPVLHYSQLLGLALGFSPDQLGIEQNAVQNIEFLAKIYEISAGLS
protein production: failed

MFVNSNGYNLGVREDEVVVNDVDLPPWAKKPEDFVRINRMALESEFVSCQLHQWIDLIFGYKQRGPEAVRALNVFHYLTYEGSVNLDSITDPVLREIPEAYFIRDPHTFLLTKDFIKAMEAQIQNFGQTPSQLLIEPHPPRSSAMHLCFLPQSPLMFKDQMQQDVIMVLKFPSNSPVTHVAANTLPHLTIPAVVTVTCSRLFAVNRWHNTVGLRGAPGYSLDQAHHLPIEMDPLIANNSGVNKRQITDLVDQSIQINAHCFVVTADNRYILICGFWDKSFRVYSTETGKLTQIVFGHWDVVTCLARSESYIGGDCYIVSGSRDATLLLWYWSGRHHIIGDNPNSSDYPAPRAVLTGHDHEVVCVSVCAELGLVISGAKEGPCLVHTITGDLLRALEGPENCLFPRLISVSSEGHCIIYYERGRFSNFSINGKLLAQMEINDSTRAILLSSDGQNLVTGGDNGVVEVWQACDFKQLYIYPGCDAGIRAMDLSHDQRTLITGMASGSIVAFNIDFNRWHYEHQNRY
protein production: failed

MEDKKEYAKYAGFRIRFAAMLIDVVILVILFSIPVGFIYGQEYWQGEKLIYGFWDVLINYVIPAILTIFFWIKFLGTPGKMILKLRVVDEHTGGTLSIGKAIGRYFAYILSILPVFLGFFWIGFSDKKQGWHDILAGTVVIRSESKGPFEFRS
protein production: failed

MPAGAVRRRLGRRAGGWENGGMSDSSPARPAAPVLDVWCELQCPDCHTALDDVRALRARYGDRLEVRLRHFPLEKHKYAFAAAQAAEEAVAQGRGWPYAEAVLDRVAELDRKGEPFLVEVARELGLDAEEFDTALIDGRHILIVDADQAEGKAIGVTGTPTYVIGGERLDGGKSQDGLRERIEEIADRLLAQPRD
protein production: failed

MEKLNFGIPEWAFEFHGHKCPYMPMGYRAGSYALKIAGLEKEKDHRTYLLSEMSPEDMNGCFNDGAQAATGCTYGKGLFSLLGYGKLALILYRPGRKAIRVHVRNSFMDELSTRASDFFRYRKQGYEPSEIPAGAIDPVLEWISSLEDEEIFEYREIDGFTFEPVKKNGAKVRCDVCGEYTYEADAKLLNGKPVCKPDYYGKK
protein production: not failed

MKQTELLKGILEGLVLAIIQRKETYGYEITKILNDQGFTEIVEGTVYTILLRLEKNQWVIAEKKPSEKGPMRKFYRLTSSGEAELADFWQRWTLLSKQVNKMKKNGGIEHVKF
protein production: not failed

MEFLGSLLTFLIDIVGSFGYFGILLIVGLEYACFPLPSEVVLTFFGLSASQGEFSLIGVIIFSIIGGLLGSLICYAIGYYGGVPLQEWLGRKFPSSQKSMLALNKWFKKYGKPAVLLARIVPLTRTYVSLLAGAEKFSLKYFILYSSLGISIWNIFLVSLGYFIGDNLPLINSIMEKYTFVTLAILIIAVIIFIYLKFFKKEKNTSK
protein production: failed

DGKLYTLNYGKVSSIALDPIEKKPLFHFWPGSCAFSIGTVGCNMHCKHCQNWEISQADESFPYLQDATPESIVRLARHYECESIAYTYNEPTIWYEFVLDTAKLAKKEGLNNILVTNGYINEEPFRELAKYIDAMNIDIKAFNDKFYMKISSVPSGEPSRRTAVIAKKEFGIHVELTYLIIPTLNDNEEEIRRFARWVVEELGDDTPVHFSRFFPHYKLLNLPPTPIQTLEKAYKIAKEEGLKFVYLGNVPGHEGENTYCPRCGKLLIERWGFEILRYEIKDGKCKY
protein production: failed

MALKDTGSGGSTILPISEMVSASSSPGAPLAAAPGPCAPSPFPEVVELNVGGQVYVTKHSTLLSVPDSTLASMFSPSSPRGGARRRGDLPRDSRARFFIDRDGFLFRYVLDYLRDKQLALPEHFPEKERLLREAEFFQLTDLVKLLSPKVTKQNSLNDECCQSDLEDNVSQGSSDALLLRGAAAGAPSGSGAHGVSGVVGGGSAPDKRSGFLTLGYRGSYTTVRDNQADAKFRRVARIMVCGRIALAKEVFGDTLNESRDPDRQPEKYTSRFYLKFTYLEQAFDRLSEAGFHMVACNSSGTAAFVNQYRDDKIWSSYTEYIFFRPPQKIVSPKQEHEDRKRDKVTDKGSESGTSCNELSTSSCDSHSEASTPQDNPANTQQAAAHQPNTLTLDRPSRKAPVQWMPPPDKRRNSELFQSLISKSRETNLSKKKVCEKLSVEEEMKKCIQDFKKIHIPDCFPERKRQWQSELLQKYGL
protein production: failed

MGHLSAPLHRVRVPWQGLLLTASLLTFWNPPTTAQLTTESMPFNVAEGKEVLLLVHNLPQQLFGYSWYKGERVDGNRQIVGYAIGTQQATPGPANSGRETIYPNASLLIQNVTQNDTGFYTLQVIKSDLVNEEATGQFHVYPELPKPSISSNNSNPVEDKDAVAFTCEPETQDTTYLWWINNQSLPVSPRLQLSNGNRTLTLLSVTRNDTGPYECEIQNPVSANRSDPVTLNVTYGPDTPTISPSDTYYRPGANLSLSCYAASNPPAQYSWLINGTFQQSTQELFIPNITVNNSGSYTCHANNSVTGCNRTTVKTIIVTELSPVVAKPQIKASKTTVTGDKDSVNLTCSTNDTGISIRWFFKNQSLPSSERMKLSQGNTTLSINPVKREDAGTYWCEVFNPISKNQSDPIMLNVNYNALPQENGLSPGAIAGIVIGVVALVALIAVALACFLHFGKTGRASDQRDLTEHKPSVSNHTQDHSNDPPNKMNEVTYSTLNFEAQQPTQPTSASPSLTATEIIYSEVKKQ
protein production: failed

MTDTTQRIFLSYAGPDQAWAEWVGWQLQQAGHQVELDRWHWRTGDDFVQKMNLALGKADAVVALFSRHYFEPKRWTREEWSAAVALRGRLVPVAIELLNDDDIPALLAGTLRTDVHGLDEAAATSALLEAVHGPVPPTGPVDFPGAASADAPTAPDAQRPRLPSSVGLPEVWNVRRRNPDFSGRETVMGQLRTGLLSGRQAVVQALHGMGGIGKTQIALEYAHRFASQYDLVWWVDAEQADQLPVRYTELADRLGVAKSDAGSEPNARALLQHLRTRHRWLLVLDNAEHPDQIEPWLPEGPGHVLITSRNPDWHGIAHQSDLDVFTRTDSLAYLKGRISGMTTEHADLLAQDLGDLPLALAQASGVLRSGMTLDRYRRLLTTDTARLLQESDVRDHPAPLAATVGIAVTRLADDGHADAVALLRLGAFLGPEPIPTAWLETARPRLATIPGDPDDPMWLRNALQPLGRFGLARTDYDAFQIHRLTQAILRTQTGPDPVVAIRDDVTAVLAAVDPGDPRSPADWPAWASLTAHLTAPHVTTALAHQAALRATFSKAAHFLICSGLPRAAHDLSAALHQAWSTDLGPDHPDTLTCAQFLGHATVDLGDYAKGRLIIEDTLVRRRRVLGEDHPDTLRSANDTSTNLSLLGERVEARRMHEDVLARRRRVLGEDHPDTLTSAGNLATILNKSGEYVEARRMQEDVLARRRRVLGEDHPDTLTSAHNLAGLLNSLGEHAESRRMQEDVLARRGLVLGEDHPDTLSSASNLATSLNSLGEHAESRRMHEDVLARRGLVLGQDHPDTLSSANKLATSLNGLGEHAEARRMHEDVLARRGVVLGQDHPSTLASAGNLATTLNSLGEHVEAHRMQEDVLARCRRVLGQDHPDTLTSASNLARTLHTLRQYSEAAELLKEVRASYVRHFGAKHPKTELATRNLATVLIAMGKTHEAQQLTGRKSDKGKRRFGRKRR
protein production: failed

LLLTRPDEECAALAASLGEAGVHSSSLPLLAIDPLEETPEQRTLMLDLDRYCAVVVVSKPAARLGLERLDRYWPQPPQQTWCSVGAATAAILEAYGLDVTYPEQGDDSEALLALPAFQDSLRVHDPKVLIMRGEGGREFLAERLRGQGVQVDYLPLYRRRAPDYPAGELLARVRAERLNGLVVSSGQGLQNLYQLAAADWPEIGRLPLFVPSPRVAEMARELGAQRVIDCRGASAPALLAALTSAA
protein production: failed

MREEELNTEKVVAAIANPVENEVRKVWEDVVEKIEQRVAVIEQASHKLLQNKVSEEILSKAKVEAHKLAGSLGMFGSDEGSQIAQEIESLLDNGKKLKASGGKHLGQVVEALHQELENLKSGLEHHHHHH
protein production: not failed

MAKAMELWVGEMKKMSEKINTRNPLMQRKNSTSVVSKQQQGSEEERGLINQKIREKNEAVTMSELTVCLLMDRFVPW
protein production: failed

MIAAPTQLAIMPFPNIDPIALSIGPLAIHWYGIAYVAGIMLGWFYARRLARTDRLWPNDTSPISAQHLDDFILWAAGGIVLGGRIGYILFYDMAAVAANPIRAIEIWNGGMSFHGGLIGTTIAMILFARRNGIPVWSMFDIIAAVAPIGLLFGRIANFINGELWGRIADVPWAVVFPTGGPFARHPSQLYEAGLEGLVLVVLLAIAIYVFKALKTPGTVTGIFVCGYALSRIFVEFFREPDAQIGYLAGNWLTMGMVLSTPMFLLGLWAVLRARSATKSA
protein production: not failed

MVVRSLSVVGLGPAGAGAAAAASRLGVKPVIYEAMEKPGLKPCGRGLPIVDGGLPVSIPRDSILRRIRGARMYVDGEFLFEMKGFLDGYIVDKTVMLEAIAVEAGGEIHYRAKYKPGSSTVRLPGGGEARVEQGVFAGGHPYYGGAKIAAVQWIMKTGPRSDPVGDMLEIHFDTELLGYAYIFPKEEGFIEVGIGGFATPRELRERLESFIHKRSDLRELERVKLEGARIAIGGLDLGVVDGLVKAGEAAGFVLPLTGEGIRPSLISGYEAASALIEGGSPLEKLRSLPIARAVSMQKRILDLVAGMSVEERRSLLKSLTPRAHAEIALGMFRKHILLKELARSPRALSLLGLVTRLI
protein production: failed

MVSMLTRIRRQIKRVIEPLAKTLAQLKVSANFITMLGLIFAIVYYFEIMRSNTTLGIIFLVFSALMDAIDGEVARVSKTVSPLGSFLDSTLDRIEDILYISAFIFLGFSSYLVAIAVGLSLTISYIRAKAESLGLKMEGRGIIERGERIIFVFVILLLYIIVSKQVSLYLFYLFMLLTAITVIQRFYAVYSLLRK
protein production: failed

MAEIYRETEVTVARALRPPVPPKRASWIGTFFGVAADPRTYGALFYMLLSLLTGVFYFTWVVTGASLSVGMLILIIGVPLLVLFFGSVRVLSLVEGRVVETLLGVRMPRRPQHPGLQGGWLQRIGAMFTDARTWSTMLYFLLMLPLGILYFTVFCTLLSLSLGLAASPIAVLFDNVAVLTWDGVDVTSAWLTLPLCVVGVLLLFVTLHLARAFGTLHGMFAKQLLVKGGEAAA
protein production: failed

MGLNNARGLSFGLDGALYVTEAGTGGNGACIPSVTGQGGSLCYGTSSTVLKIENGVTSPVLTGLPSIALADGTGAGGARDIQFDTTGKPYILMGYGANPTFRNNLGNIDLGKIIAPDFQTNSWTSIADLANYELVNNPDGGDINSNPLGFFIDGNNLIAVDAGANNLLSVQTNGTNLQTLSVFPQEILTNPVFPPSGTPSTEPGQVPTPTAPPPPQLPIQVVPSSVVRGPDGAYYVSQFTGFPFPEGGAKIYRVGTDGETTIYADGFTQLTDLEFDSAGNLYALQYANQSAWKGNFDGSLIKIAADGTRTTILSGNGLESPNALAIAPNGEIYITNRSDRPGLGQIIRVENSQAVPLEHHHHHH
protein production: failed
